Results taken from patent US20200216522A1 (DENALI THERAPEUTICS, published 2020).
Numbering of substitutions follows the chain as printed. Square brackets hold non-standard residues; d marks the D form. * marks the point of attachment. Biotin = O=C1N[C@H]2[C@H](CS[C@H]2CCCCC(=O)*)N1; pS = N[C@@H](COP(=O)(O)O)C(=O)O

B1: chimeric IgG clone 1A1 (antibody, V domains shown)
VH: EVQLQQSGAELVRPGASVRLSCTASGFNIKDSLMHWLKQRPEQGLEWIGWIDPEDGETKYAPKFQDKATITADTSSNTAYLQLSSLTSEDTAIYYCTRRDWEGPWGQGTLVTVSA
VL: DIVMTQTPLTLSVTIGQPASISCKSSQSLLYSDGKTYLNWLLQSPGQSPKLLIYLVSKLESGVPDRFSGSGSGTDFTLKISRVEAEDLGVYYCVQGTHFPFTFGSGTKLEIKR
notes: mouse-human chimeric IgG from HEK293; also called anti-Tau 1A1; anti-Tau^1A1
B2: chimeric IgG clone 1G7 (antibody, V domains shown)
VH: B1 VH with L11V, R19K, A24T, E89G, T97A
VL: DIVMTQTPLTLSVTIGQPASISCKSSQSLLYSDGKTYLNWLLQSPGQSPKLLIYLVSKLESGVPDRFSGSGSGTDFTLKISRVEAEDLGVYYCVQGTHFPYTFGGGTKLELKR
notes: mouse-human chimeric IgG from HEK293
B3: chimeric IgG clone 1A5 (antibody, V domains shown)
VH: EVQLQQSGAELVRPGASVKLSCTASGFNIKDSLIHWVKQRPEQGLEWIGWIDPEDGETKYAPKFQDKATKTADTSSNTAYLQLSSLTSEDTAIYYCASGEWDYWGQGTSVTVSS
VL: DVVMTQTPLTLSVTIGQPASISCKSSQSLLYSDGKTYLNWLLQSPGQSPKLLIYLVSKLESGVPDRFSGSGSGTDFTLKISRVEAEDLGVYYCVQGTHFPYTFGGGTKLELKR
notes: as for B2
B4: murine anti-Tau hybridoma antibody 17G2.A1 (antibody, V domains shown)
VH: QVQLQQPGAELVGPGSSVKLSCKASGYTFINYWIDWMKQSPGQGLEWIGNIYPSDSESHYNQKFTDKATLTVDISSSTAYLQLSSLTSEDSAVYYCALYSKGYWGQGTSVTVSS
VL: DVLMTQTPLSLPVTLGDQASISCRSSQNIVHTNGNTYLEWYLQKPGQSPKLLIYKLSSRFSGVPDRFSGSGSGTDFTLKISRVEAEDLGVYYCFQGSHLPFTFGGGTKLEIKR
notes: mouse IgG from hybridoma; also called anti-Tau 17G2.A1
B5: chimeric IgG clone 1D10 (antibody, V domains shown)
VH: EVQLQQSGAELVRPGASVKLSCTASGFNIKDSLMHWMKQRPEQGLEWIGWIDPEDGETKYAPKFQDKATLTADTSSNAAYLQLSSLTSEDTAIYYCVRGDWDGGYWGQGTTLTVSS
VL: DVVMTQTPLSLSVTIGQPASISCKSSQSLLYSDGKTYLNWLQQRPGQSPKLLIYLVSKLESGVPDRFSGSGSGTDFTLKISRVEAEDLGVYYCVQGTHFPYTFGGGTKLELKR
notes: as for B2

What was measured:
[1] = biological target: T1, Tau 346-360 peptide phosphorylated at Ser352 (human, SMILES …); assay: ELISA on biotinylated peptide
T1 construct: also called pSer352
T1 peptide: Biotin-FKDRVQ[pS]KIGSLDNI-NH2
Experimental: (§1) Peptides corresponding to original binding sites on the microarray were synthesized and included all permutations of phospho-serine epitopes. Peptides were synthesized with a biotinylated N-terminus and C-terminal amide. Peptides were purified and confirmed by mass spectrometry. Peptides were then bound to streptavidin-coated plates in half serial dilutions from 250 ng/well of each peptide. Antibody binding was tested at 1 μg/mL in 5% BSA TBST, followed by washing and detection with goat anti-human HRP (as described above in the “Chimeric IgG ELISA” section).

[2] = biological target: T2, Tau 251-270 peptide phosphorylated at both Ser258 and Ser262 (human, N-terminal biotin; C-terminal amide; phosphoserine at 258 and 262 (numbering of SEQ ID NO:1)); assay: ELISA on biotinylated peptide
T2 construct: also called pSer258 and pSer262 peptide
T2 peptide: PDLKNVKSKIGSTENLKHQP
Experimental: as §1

[3] = biological target: T3, Tau 346-360 peptide phosphorylated at Ser356 (human, SMILES …); assay: ELISA on biotinylated peptide
T3 construct: also called pSer356
T3 peptide: Biotin-FKDRVQSKIG[pS]LDNI-NH2
Experimental: as §1

Peptide_026 = biological target: T4, Peptide_026 (human); assay: peptide array
T4 peptide: RMVSKSKDGTGSDDK
Summary of the method: (§2)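 Epitope mapping used slides carrying triplicate 15-residue peptides, offset by 5 aa, tiling full-length human Tau 2N4R. Chimeric IgG at 5 μg/mL or murine IgG at 30 μg/mL in 3% BSA-TBST (pH 7.5) bound for 2 h at RT; Alexa Fluor secondaries (568 or 647 nm channel) applied 1 h, then imaged.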

Peptide_046 = biological target: T5, Peptide_046 (human); assay: peptide array
T5 peptide: VAVVRTPPKSPSSAK
Summary of the method: as §2

Peptide_074 = biological target: T6, Peptide_074 (human); assay: peptide array
T6 peptide: GGNKKIETHKLTFRE
Summary of the method: as §2

Peptide_023 = biological target: T7, Peptide_023 (human); assay: peptide array
T7 peptide: TPSLEDEAAGHVTQA
Summary of the method: as §2

Peptide_001 = biological target: T8, Peptide_001 (human); assay: peptide array
T8 peptide: MAEPRQEFEVMEDHA
Summary of the method: as §2

Peptide_051 = biological target: T9, Peptide_051 (human); assay: peptide array
T9 peptide: PDLKNVKSKIGSTEN
Summary of the method: as §2

[4] = biological target: T10, full-length human Tau (Tau441; 2N4R), recombinant (human, UniProt P10636 1-758); assay: Octet binning on biotin-r-Tau; competitor 1G7
T10 construct: made in E. coli, His6-Smt3 tag removed; biotinylated through amines for Octet and phage work; also called r-Tau; recombinant Tau
Experimental: (§3) Epitope binning assays were performed using a FortéBio® Octet® RED384 instrument using FortéBio® Streptavidin biosensors. Biotinylated recombinant Tau was diluted to a concentration of 2 μg/mL in kinetic buffer (obtained from FortéBio®) and captured onto individual biosensors for 1 minute. A baseline was then established for 1 minute in kinetic buffer. The loaded biosensors were dipped into 10 μg/mL of the first chimeric IgG antibody until signal saturation, followed by dipping into 1 μg/mL of a second antibody. The binding for the second antibody was normalized to its total binding in the absence of the first antibody.

[5] = biological target: T10, full-length human Tau (Tau441; 2N4R), …; assay: Octet binning on biotin-r-Tau; row antibody Ab107 (anti-BACE1 control)
Experimental: as §3

[6] = biological target: T10, full-length human Tau (Tau441; 2N4R), …; assay: SPR Biacore, antibody captured, r-Tau injected
Experimental: The affinity of each hybridoma antibody for r-Tau was determined by surface plasmon resonance using a Biacore™ T200 instrument. Biacore™ Series S CM5 sensor chips were immobilized with polyclonal rabbit anti-mouse IgG (Fc) antibody (mouse antibody capture kit from GE Healthcare). 1 μg/mL of antibody was captured for 1 minute on each flow cell and serial 3-fold dilutions of r-Tau were injected at a flow rate of […]. Each sample was analyzed with a 3-minute association and a 10-minute dissociation. After each injection, the chip was regenerated using 10 mM Glycine-HCl (pH 1.7). Binding response was corrected by subtracting the RU from a flow cell capturing an irrelevant IgG at similar density. A 1:1 Languir model of simultaneous fitting of kₒₙ and koff was used for kinetics analysis.

[7] = biological target: T11, Tau 186-205 peptide (17G2.A1 peptide) (human, N-terminal biotin); assay: direct ELISA on biotinylated peptide
T11 peptide: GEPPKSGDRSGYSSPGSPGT
Experimental: The peptides were diluted in 3% BSA/TBST in 0.5 log dilutions starting at 1 μg/mL and bound to neutravidin coated plates. Plates were washed 5× with TBST between all steps. 17G2.A1 was diluted to 5 μg/mL in 3% BSA/TBST and incubated for 1 hour at room temperature, followed by incubation with anti-mouse IgG-HRP (Novex) diluted 1/5000 in BSA/TBST for 45 minutes at room temperature. ELISAs were developed with 50 μL of 1-step TMB Ultra.

T10 sequence (P10636 other isoform, or with tags, fused parts or gaps limits assumed): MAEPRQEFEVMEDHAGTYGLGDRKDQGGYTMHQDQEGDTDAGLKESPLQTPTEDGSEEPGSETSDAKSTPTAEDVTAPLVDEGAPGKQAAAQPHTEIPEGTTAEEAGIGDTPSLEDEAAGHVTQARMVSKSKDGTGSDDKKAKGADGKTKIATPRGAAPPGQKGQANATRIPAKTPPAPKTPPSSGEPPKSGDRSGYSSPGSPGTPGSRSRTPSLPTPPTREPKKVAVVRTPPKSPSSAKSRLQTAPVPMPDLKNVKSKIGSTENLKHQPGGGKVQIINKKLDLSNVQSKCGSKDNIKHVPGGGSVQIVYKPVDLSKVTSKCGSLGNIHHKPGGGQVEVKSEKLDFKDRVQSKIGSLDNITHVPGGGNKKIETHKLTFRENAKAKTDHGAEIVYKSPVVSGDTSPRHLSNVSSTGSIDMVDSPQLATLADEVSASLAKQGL

Binder	binding result [1]	binding result [2]	binding result [3]	binding result (Peptide_026)	binding result (Peptide_046)	binding result (Peptide_074)	binding result (Peptide_023)	binding result (Peptide_001)	binding result (Peptide_051)	normalized binding of second antibody [4]	normalized binding of second antibody [5]	Kd [6] [nM]	koff [6] [s⁻¹]	kon [6] [M⁻¹ s⁻¹]	binding result [7]
B1	binds	binds	binds	no binding (tested: 5 ug/mL)	no binding (tested: 5 ug/mL)	no binding (tested: 5 ug/mL)	no binding (tested: 5 ug/mL)	no binding (tested: 5 ug/mL)	binds	–	–	–	–	–	–
B2	binds	–	–	no binding (tested: 5 ug/mL)	no binding (tested: 5 ug/mL)	no binding (tested: 5 ug/mL)	no binding (tested: 5 ug/mL)	no binding (tested: 5 ug/mL)	binds	-0.03	1	–	–	–	–
B3	–	–	–	no binding (tested: 5 ug/mL)	no binding (tested: 5 ug/mL)	no binding (tested: 5 ug/mL)	no binding (tested: 5 ug/mL)	no binding (tested: 5 ug/mL)	binds	-0.1	1	–	–	–	–
B4	–	–	–	no binding (tested: 30 ug/mL)	no binding (tested: 30 ug/mL)	no binding (tested: 30 ug/mL)	no binding (tested: 30 ug/mL)	no binding (tested: 30 ug/mL)	no binding (tested: 30 ug/mL)	–	–	2.48	0.000383	155000	binds
B5	–	–	–	no binding (tested: 5 ug/mL)	no binding (tested: 5 ug/mL)	no binding (tested: 5 ug/mL)	no binding (tested: 5 ug/mL)	no binding (tested: 5 ug/mL)	binds	0.12	1	–	–	–	–
